Consider one substance from US20230125561A1.

The target of this test is SARS-CoV-2 Spike S1 protein, B.1.1.7 (UK (Kent)) variant (SARS-CoV-2) (UniProt P0DTC2). In words: ELISA. The settings on record: designed binder. Background: ELISA stands for enzyme-linked immunosorbent assay.

On to “Neumifil (HEX17: trimeric (hexavalent) form based on S. pneumoniae CBM40)”, for which the EC50 (usually the concentration at which the effect is half-maximal) turned out to be 0.137 µg/mL.
